Laboratory results: IntAct's records for PubMed 20937909

B1: Staphylococcal nuclease domain-containing protein 1 (Homo sapiens), Q7KZF4 (parent)
chain: MASSAQSGGSSGGPAVPTVQRGIIKMVLSGCAIIVRGQPRGGPPPERQINLSNIRAGNLARRAAATQPDAKDTPDEPWAFPAREFLRKKLIGKEVCFTIENKTPQGREYGMIYLGKDTNGENIAESLVAEGLATRREGMRANNPEQNRLSECEEQAKAAKKGMWSEGNGSHTIRDLKYTIENPRHFVDSHHQKPVNAIIEHVRDGSVVRALLLPDYYLVTVMLSGIKCPTFRREADGSETPEPFAAEAKFFTESRLLQRDVQIILESCHNQNILGTILHPNGNITELLLKEGFARCVDWSIAVYTRGAEKLRAAERFAKERRLRIWRDYVAPTANLDQKDKQFVAKVMQVLNADAIVVKLNSGDYKTIHLSSIRPPRLEGENTQDKNKKLRPLYDIPYMFEAREFLRKKLIGKKVNVTVDYIRPASPATETVPAFSERTCATVTIGGINIAEALVSKGLATVIRYRQDDDQRSSHYDELLAAEARAIKNGKGLHSKKEVPIHRVADISGDTQKAKQFLPFLQRAGRSEAVVEYVFSGSRLKLYLPKETCLITFLLAGIECPRGARNLPGLVQEGEPFSEEATLFTKELVLQREVEVEVESMDKAGNFIGWLHIDGANLSVLLVEHALSKVHFTAERSSYYKSLLSAEEAAKQKKEKVWAHYEEQPVEEVMPVLEEKERSASYKPVFVTEITDDLHFYVQDVETGTQLEKLMENMRNDIASHPPVEGSYAPRRGEFCIAKFVDGEWYRARVEKVESPAKIHVFYIDYGNREVLPSTRLGTLSPAFSTRVLPAQATEYAFAFIQVPQDDDARTDAVDSVVRDIQNTQCLLNVEHLSAGCPHVTLQFADSKGDVGLGLVKEGLVMVEVRKEKQFQKVITEYLNAQESAKSARLNLWRYGDFRADDADEFGYSR

Variants of: B1
Conditions: with piwl1_human PIWIL1, Q96J94
piwl1_human PIWIL1, Q96J94, sequence (Q96J94 whole entry): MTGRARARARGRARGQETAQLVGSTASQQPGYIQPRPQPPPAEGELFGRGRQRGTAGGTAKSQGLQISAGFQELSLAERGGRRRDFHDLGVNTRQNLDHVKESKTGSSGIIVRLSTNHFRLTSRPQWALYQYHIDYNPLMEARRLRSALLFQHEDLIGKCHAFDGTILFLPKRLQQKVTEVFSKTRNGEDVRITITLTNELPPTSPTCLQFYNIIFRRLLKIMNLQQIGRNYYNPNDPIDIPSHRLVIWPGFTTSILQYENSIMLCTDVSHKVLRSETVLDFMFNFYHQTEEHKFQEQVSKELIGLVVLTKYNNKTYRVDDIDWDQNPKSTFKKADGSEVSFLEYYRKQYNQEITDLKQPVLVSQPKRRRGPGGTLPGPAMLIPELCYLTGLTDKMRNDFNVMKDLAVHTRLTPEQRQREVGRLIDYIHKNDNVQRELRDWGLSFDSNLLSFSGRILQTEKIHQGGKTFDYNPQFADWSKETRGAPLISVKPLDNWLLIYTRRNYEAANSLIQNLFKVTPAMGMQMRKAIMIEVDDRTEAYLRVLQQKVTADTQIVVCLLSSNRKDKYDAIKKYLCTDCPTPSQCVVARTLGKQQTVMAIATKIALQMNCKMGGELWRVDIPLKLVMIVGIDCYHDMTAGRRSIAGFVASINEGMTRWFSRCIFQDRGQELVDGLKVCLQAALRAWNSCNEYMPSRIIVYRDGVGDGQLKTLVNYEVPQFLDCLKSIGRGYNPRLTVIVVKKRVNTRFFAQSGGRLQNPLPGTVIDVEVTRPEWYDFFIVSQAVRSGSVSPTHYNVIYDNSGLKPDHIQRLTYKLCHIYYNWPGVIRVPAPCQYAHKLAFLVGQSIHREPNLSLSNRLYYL

effect of a mutation on the interaction	Variant
decreasing interaction	F740L
decreasing interaction	Y763L

Second part, the variant before the results:

Variant	effect of a mutation on the interaction
N768Q	decreasing interaction
N768R	disrupting interaction
Y746L	decreasing interaction strength
Y766L	decreasing interaction
